Reference: patent publication US20190142971A1, “FORMULATION AND DELIVERY OF MODIFIED NUCLEOSIDE, NUCLEOTIDE, AND NUCLEIC ACID COMPOSITIONS” (ModernaTX, Inc., priority 2013, published 2019)

System: non-human primates (cynomolgus monkey)
Assay: Example 22: NHP hematology: neutrophils, reticulocytes, HGB, HCT, RBC (Tables 40-44)
Assay type: in vivo
Experimental: LNP formulations, shown in Table 33 (above), were administered to non-human primates (NHP) (cynomolgus monkey) (n=2) as intravenous injection (IV). The NHP were administered a single modified mRNA IV dose of 0.5 mg/kg, 0.05 mg/kg or 0.005 mg/kg of G-CSF or EPO in a dose volume of 0.5 mL/kg. The NHPs were bled before dosing with the modified mRNA LNP formulations to determine protein expression in the serum and a baseline complete blood count. After administration with the G-CSF modified mRNA formulation the NHP were bled at 8, 24, 48 and 72 hours to determined protein expression. After administration with the EPO modified mRNA formulation the NHP were bled at 8, 24, 48, 72 hours and 7 days to determined protein expression.
Samples collected from the NHPs after they were administered with G-CSF or EPO modified mRNA formulations were analyzed by ELISA to determine protein expression. Neutrophil and reticulocyte count was also determined pre-dose, 24 hours, 3 days, 7 days, 14 days and 18 days after administration of the modified G-CSF or EPO formulation.

[1] = 0.005 mg/kg, 14/18 days, Female NHP
[2] = 0.005 mg/kg, 14/18 days, Male NHP
[3] = 0.005 mg/kg, 24 hours, Female NHP
[4] = 0.005 mg/kg, 24 hours, Male NHP
[5] = 0.005 mg/kg, 3 days, Female NHP
[6] = 0.005 mg/kg, 7 days, Female NHP
[7] = 0.005 mg/kg, Pre-dose, Female NHP
[8] = 0.005 mg/kg, Pre-dose, Male NHP
[9] = 0.05 mg/kg, 14/18 days, Female NHP
[10] = 0.05 mg/kg, 14/18 days, Male NHP
[11] = 0.05 mg/kg, 24 hours, Female NHP
[12] = 0.05 mg/kg, Pre-dose, Female NHP
[13] = 0.5 mg/kg, 14/18 days, Female NHP
[14] = 0.5 mg/kg, 14/18 days, Male NHP
[15] = 0.5 mg/kg, 24 hours, Female NHP
[16] = 0.5 mg/kg, Pre-dose, Female NHP

B1: EPO: modified mRNA encoding human erythropoietin, SEQ ID NO: 7, Cap1, fully modified with 5-methylcytosine and pseudouridine; LNP NPA-060-1 in Examples 17-22 (nucleic acid)
chain: GGGAAAUAAGAGAGAAAAGAAGAGUAAGAAGAAAUAUAAGAGCCACCAUGGGAGUGCACGAGUGUCCCGCGUGGUUGUGGUUGCUGCUGUCGCUCUUGAGCCUCCCACUGGGACUGCCUGUGCUGGGGGCACCACCCAGAUUGAUCUGCGACUCACGGGUACUUGAGAGGUACCUUCUUGAAGCCAAAGAAGCCGAAAACAUCACAACCGGAUGCGCCGAGCACUGCUCCCUCAAUGAGAACAUUACUGUACCGGAUACAAAGGUCAAUUUCUAUGCAUGGAAGAGAAUGGAAGUAGGACAGCAGGCCGUCGAAGUGUGGCAGGGGCUCGCGCUUUUGUCGGAGGCGGUGUUGCGGGGUCAGGCCCUCCUCGUCAACUCAUCACAGCCGUGGGAGCCCCUCCAACUUCAUGUCGAUAAAGCGGUGUCGGGGCUCCGCAGCUUGACGACGUUGCUUCGGGCUCUGGGCGCACAAAAGGAGGCUAUUUCGCCGCCUGACGCGGCCUCCGCGGCACCCCUCCGAACGAUCACCGCGGACACGUUUAGGAAGCUUUUUAGAGUGUACAGCAAUUUCCUCCGCGGAAAGCUGAAAUUGUAUACUGGUGAAGCGUGUAGGACAGGGGAUCGCUGAUAAGCUGCCUUCUGCGGGGCUUGCCUUCUGGCCAUGCCCUUCUUCUCUCCCUUGCACCUGUACCUCUUGGUCUUUGAAUAAAGCCUGAGUAGGAAG
modifications: Cap1, 5-methylcytosine, pseudouridine
- Female NHP HGB (0.005 mg/kg IV, 14/18 days): 129 g/L
- Female NHP Neutrophils (0.005 mg/kg IV, 14/18 days): 2.54 10^9/L
- Male NHP HGB (0.005 mg/kg IV, 14/18 days): 128 g/L
- Male NHP Neutrophils (0.005 mg/kg IV, 14/18 days): 1.52 10^9/L
- Female NHP HGB (0.005 mg/kg IV, 24 hours): 128 g/L
- Female NHP Neutrophils (0.005 mg/kg IV, 24 hours): 2.59 10^9/L
- Male NHP HGB (0.005 mg/kg IV, 24 hours): 122 g/L
- Male NHP Neutrophils (0.005 mg/kg IV, 24 hours): 5.37 10^9/L
- Female NHP HGB (0.005 mg/kg IV, 3 days): 130 g/L
- Female NHP Neutrophils (0.005 mg/kg IV, 3 days): 2.83 10^9/L
- Male NHP HGB (0.005 mg/kg IV, 3 days): 125 g/L
- Male NHP Neutrophils (0.005 mg/kg IV, 3 days): 6.08 10^9/L
- Female NHP HGB (0.005 mg/kg IV, 7 days): 127 g/L
- Female NHP Neutrophils (0.005 mg/kg IV, 7 days): 2.23 10^9/L
- Male NHP HGB (0.005 mg/kg IV, 7 days): 119 g/L
- Male NHP Neutrophils (0.005 mg/kg IV, 7 days): 3.51 10^9/L
- Female NHP HGB (0.005 mg/kg IV, Pre-dose): 136 g/L
- Female NHP Neutrophils (0.005 mg/kg IV, Pre-dose): 5.96 10^9/L
- Male NHP HGB (0.005 mg/kg IV, Pre-dose): 132 g/L
- Male NHP Neutrophils (0.005 mg/kg IV, Pre-dose): 5.46 10^9/L
- HCT [1]: 0.42 L/L
- RBC [1]: 5.36 10^12/L
- HCT [2]: 0.42 L/L
- RBC [2]: 5.67 10^12/L
- HCT [3]: 0.43 L/L
- RBC [3]: 5.35 10^12/L
- HCT [4]: 0.42 L/L
- RBC [4]: 5.63 10^12/L
- HCT [5]: 0.42 L/L
- RBC [5]: 5.42 10^12/L
- HCT (0.005 mg/kg, 3 days, Male NHP): 0.44 L/L
- RBC (0.005 mg/kg, 3 days, Male NHP): 5.77 10^12/L
- HCT [6]: 0.42 L/L
- RBC [6]: 5.35 10^12/L
- HCT (0.005 mg/kg, 7 days, Male NHP): 0.41 L/L
- RBC (0.005 mg/kg, 7 days, Male NHP): 5.49 10^12/L
- HCT [7]: 0.45 L/L
- RBC [7]: 5.72 10^12/L
- HCT [8]: 0.48 L/L
- RBC [8]: 6.15 10^12/L
- Female NHP HGB (0.05 mg/kg IV, 14/18 days): 129 g/L
- Female NHP Neutrophils (0.05 mg/kg IV, 14/18 days): 1.27 10^9/L
- Male NHP HGB (0.05 mg/kg IV, 14/18 days): 133 g/L
- Male NHP Neutrophils (0.05 mg/kg IV, 14/18 days): 1.53 10^9/L
- Female NHP HGB (0.05 mg/kg IV, 24 hours): 116 g/L
- Female NHP Neutrophils (0.05 mg/kg IV, 24 hours): 2.63 10^9/L
- Male NHP HGB (0.05 mg/kg IV, 24 hours): 123 g/L
- Male NHP Neutrophils (0.05 mg/kg IV, 24 hours): 2.51 10^9/L
- Female NHP HGB (0.05 mg/kg IV, 3 days): 120 g/L
- Female NHP Neutrophils (0.05 mg/kg IV, 3 days): 4.08 10^9/L
- Male NHP HGB (0.05 mg/kg IV, 3 days): 116 g/L
- Male NHP Neutrophils (0.05 mg/kg IV, 3 days): 1.73 10^9/L
- Female NHP HGB (0.05 mg/kg IV, 7 days): 121 g/L
- Female NHP Neutrophils (0.05 mg/kg IV, 7 days): 2.77 10^9/L
- Male NHP HGB (0.05 mg/kg IV, 7 days): 126 g/L
- Male NHP Neutrophils (0.05 mg/kg IV, 7 days): 1.23 10^9/L
- Female NHP HGB (0.05 mg/kg IV, Pre-dose): 133 g/L
- Female NHP Neutrophils (0.05 mg/kg IV, Pre-dose): 2.15 10^9/L
- Male NHP HGB (0.05 mg/kg IV, Pre-dose): 133 g/L
- Male NHP Neutrophils (0.05 mg/kg IV, Pre-dose): 0.97 10^9/L
- HCT [9]: 0.43 L/L
- RBC [9]: 5.57 10^12/L
- HCT [10]: 0.46 L/L
- RBC [10]: 5.57 10^12/L
- HCT [11]: 0.39 L/L
- RBC [11]: 5.18 10^12/L
- HCT (0.05 mg/kg, 24 hours, Male NHP): 0.43 L/L
- RBC (0.05 mg/kg, 24 hours, Male NHP): 5.25 10^12/L
- HCT (0.05 mg/kg, 3 days, Female NHP): 0.4 L/L
- RBC (0.05 mg/kg, 3 days, Female NHP): 5.16 10^12/L
- HCT (0.05 mg/kg, 3 days, Male NHP): 0.38 L/L
- RBC (0.05 mg/kg, 3 days, Male NHP): 4.81 10^12/L
- HCT (0.05 mg/kg, 7 days, Female NHP): 0.41 L/L
- RBC (0.05 mg/kg, 7 days, Female NHP): 5.31 10^12/L
- HCT (0.05 mg/kg, 7 days, Male NHP): 0.45 L/L
- RBC (0.05 mg/kg, 7 days, Male NHP): 5.37 10^12/L
- HCT [12]: 0.43 L/L
- RBC [12]: 5.84 10^12/L
- HCT (0.05 mg/kg, Pre-dose, Male NHP): 0.45 L/L
- RBC (0.05 mg/kg, Pre-dose, Male NHP): 5.57 10^12/L
- Female NHP HGB (0.5 mg/kg IV, 14/18 days): 133 g/L
- Female NHP Neutrophils (0.5 mg/kg IV, 14/18 days): 2.36 10^9/L
- Male NHP HGB (0.5 mg/kg IV, 14/18 days): 146 g/L
- Male NHP Neutrophils (0.5 mg/kg IV, 14/18 days): 7.16 10^9/L
- Female NHP HGB (0.5 mg/kg IV, 24 hours): 108 g/L
- Female NHP Neutrophils (0.5 mg/kg IV, 24 hours): 11.85 10^9/L
- Male NHP HGB (0.5 mg/kg IV, 24 hours): 127 g/L
- Male NHP Neutrophils (0.5 mg/kg IV, 24 hours): 7.5 10^9/L
- Female NHP HGB (0.5 mg/kg IV, 3 days): 120 g/L
- Female NHP Neutrophils (0.5 mg/kg IV, 3 days): 5.22 10^9/L
- Male NHP HGB (0.5 mg/kg IV, 3 days): 126 g/L
- Male NHP Neutrophils (0.5 mg/kg IV, 3 days): 11.07 10^9/L
- Female NHP HGB (0.5 mg/kg IV, 7 days): 134 g/L
- Female NHP Neutrophils (0.5 mg/kg IV, 7 days): 2.85 10^9/L
- Male NHP HGB (0.5 mg/kg IV, 7 days): 140 g/L
- Male NHP Neutrophils (0.5 mg/kg IV, 7 days): 11.8 10^9/L
- Female NHP HGB (0.5 mg/kg IV, Pre-dose): 123 g/L
- Female NHP Neutrophils (0.5 mg/kg IV, Pre-dose): 1.82 10^9/L
- Male NHP HGB (0.5 mg/kg IV, Pre-dose): 134 g/L
- Male NHP Neutrophils (0.5 mg/kg IV, Pre-dose): 9.72 10^9/L
- HCT [13]: 0.46 L/L
- RBC [13]: 5.72 10^12/L
- HCT [14]: 0.48 L/L
- RBC [14]: 5.83 10^12/L
- HCT [15]: 0.36 L/L
- RBC [15]: 4.69 10^12/L
- HCT (0.5 mg/kg, 24 hours, Male NHP): 0.4 L/L
- RBC (0.5 mg/kg, 24 hours, Male NHP): 5.12 10^12/L
- HCT (0.5 mg/kg, 3 days, Female NHP): 0.39 L/L
- RBC (0.5 mg/kg, 3 days, Female NHP): 5.15 10^12/L
- HCT (0.5 mg/kg, 3 days, Male NHP): 0.41 L/L
- RBC (0.5 mg/kg, 3 days, Male NHP): 5.13 10^12/L
- HCT (0.5 mg/kg, 7 days, Female NHP): 0.45 L/L
- RBC (0.5 mg/kg, 7 days, Female NHP): 5.68 10^12/L
- HCT (0.5 mg/kg, 7 days, Male NHP): 0.45 L/L
- RBC (0.5 mg/kg, 7 days, Male NHP): 5.55 10^12/L
- HCT [16]: 0.4 L/L
- RBC [16]: 5.26 10^12/L
- HCT (0.5 mg/kg, Pre-dose, Male NHP): 0.44 L/L
- RBC (0.5 mg/kg, Pre-dose, Male NHP): 5.43 10^12/L
- reticulocytes 3 days to 14/18 days after dosing relative to 24 hours after dosing (all dose groups): increase in reticulocytes
- effect on hemoglobin (HGB), hematocrit (HCT) and red blood cell (RBC) count (cynomolgus monkey, in vivo): had an effect
